Results on 2 molecules are retold here after US20260083845A1 (CELLICURE, published 2026).

B2: DNAX-Activation Protein 10 (DAP10) (other, human, UniProt Q9UBK5 19-93, looked up)
chain: QTTPGERSSLPAFYPGTSGSCSGCGSLSLPLLAGLVAADAVASLLIVGAVFLCARPRRSPAQEDGKVYINMPGRG
notes: whole, on cells; Endogenous DAP10 of the NK cells, detected with anti-DAP10 (mouse IgG) in the PLA

Assay [1] addresses B2. As to the kind of experiment: Duolink proximity ligation assay (anti-GFP + anti-DAP10) in NK cells stimulated by 293T-CD19-MICA, confocal microscopy. How it is done: (§1) PLA assays were performed using the in situ Duolink PLA red kit (Sigma-Aldrich) according to the manufacturer's instructions. The CAR0, an empty vector with GFP expression, or CAR2-GFP fusion expressing NK cells were attached to the poly-l-lysine glass, target cells were then added and incubated at 37° C. for 30 minutes. Unattached cells were removed by washing with PBS. slides were fixed and stained with anti-GFP (Rabbit IgG) and anti-DAP10 (Mouse IgG), washed, and stained with anti-rabbit and anti-mouse PLA probes, followed by probe DNA ligation, amplification, Fluorescent staining were then performed and observed using confocal microscopy,
(§2) NKG2D receptor has no intracellular signaling domain, it recruits adaptor DNAX-Activation Protein 10 (DAP10) to transfer signals via YxxM motif (Eagle et al. (2009) Beyond Stressed Self: Evidence for NKG2D Ligand Expression on Healthy Cells. Curr Immunol Rev. 5(1):22-34). […] DAP10 was recruited to the CAR2 effectively stimulating by CD19.

Assay [2] addresses T1, NKG2D (natural receptor on NK cells) (human, UniProt P26718 1-216).
T1 construct: whole, on cells; also called NKG2D receptors; natural NKG2D
T1 sequence (looked up): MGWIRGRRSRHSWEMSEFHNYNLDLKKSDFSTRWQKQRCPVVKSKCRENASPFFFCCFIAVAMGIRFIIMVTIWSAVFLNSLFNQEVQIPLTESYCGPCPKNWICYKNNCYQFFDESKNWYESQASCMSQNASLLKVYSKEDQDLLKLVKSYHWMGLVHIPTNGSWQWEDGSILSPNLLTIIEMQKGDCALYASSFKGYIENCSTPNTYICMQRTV
The assay is described as follows: Duolink proximity ligation assay NKG2D+DAP10, counted PLA signals, CAR-NK cells stimulated by 293T-MICA.

A further assay addresses T2, NKG2D-GFP (human, UniProt P26718 1-216).
T2 construct: whole, on cells; NKG2D-GFP expressed in NK cells for the PLA between GFP and DAP10; also called natural NKG2D; not shown: GFP
T2 sequence (looked up): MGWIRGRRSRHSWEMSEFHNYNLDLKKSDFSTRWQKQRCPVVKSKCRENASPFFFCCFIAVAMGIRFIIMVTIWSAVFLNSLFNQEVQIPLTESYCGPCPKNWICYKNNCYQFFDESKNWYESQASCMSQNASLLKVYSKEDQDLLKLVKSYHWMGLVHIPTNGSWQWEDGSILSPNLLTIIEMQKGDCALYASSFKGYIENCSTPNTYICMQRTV
The assay is described as follows: Duolink proximity ligation assay (anti-GFP + anti-DAP10) in NKG2D-GFP expressing NK cells with CAR0 or CAR2, stimulated by 293T-CD19-MICA, confocal microscopy. How it is done:
as §1, §2

B1: CAR2-GFP fusion (NKG2D CAR: anti-CD19 ScFv-CD8 hinge-NKG2D TM-2B4 ICD-CD3zeta, fused to GFP) (receptor)
chain: EVKLQQSGAELVRPGSSVKISCKASGYAFSSYWMNWVKQRPGQGLEWIGQIYPGDGDTNYNGKFKGQATLTADKSSSTAYMQLSGLTSEDSAVYFCARKTISSVVDFYFDYWGQGTTVTVSSGGGGSGGGGSGGGGSDIELTQSPKFMSTSVGDRVSVTCKASQNVGTNVAWYQQKPGQSPKPLIYSATYRNSGVPDRFTGSGSGTDFTLTITNVQSKDLADYFCQQYNRYPYTSGGGTKLEIKPAKPTTTPAPRPPTPAPTIASQPLSLRPEACRPAAGGAVHTRGLDFACDPFFFCCFIAVAMGIRFIIMVTWRRKRKEKQSETSPKEFLTIYEDVKDLKTRRNHEQEQTFPGGGSTIYSMIQSQSSAPTSQEPAYTLYSLIQPSRKSGSRKRNHSPSFNSTIYEVIGKSQPKAQNPARLSRKELENFDVYSSFGLLDPKLCYLLDGILFIYGVILTALFLRVKFSRSADAPAYQQGQNQLYNELNLGRREEYDVLDKRRGRDPEMGGKPRRKNPQEGLYNELQKDKMAEAYSEIGMKGERRRGKGHDGLYQGLSTATKDTYDALHMQALPPR
notes: Expressed in NK cells for the Duolink PLA; not shown: GFP
Take B1: the binding result in assay [1] is “binds”.
Turning to B2, the binding result (in assay [2]; with NKG2D-GFP) was “binds” in each case.
